# Measurements reported in publication PMC8096265, “A functional LSD1 coregulator screen reveals a novel transcriptional regulatory cascade connecting R-loop homeostasis with epigenetic regulation” (Nucleic Acids Research, 2021).
# Ends that are not written are not given here.
# T1: GST-DDX19A (recombinant full-length DEAD-box helicase 19A) (UniProt Q9NUU7 1-478)
# T1 construct: DEAD-box helicase 19A (DDX19A), expressed from pGEX-DDX19A; Printed both as GST-DDX19A and as DDX19A-GST; no cleavage of GST is described, and the array is detected by anti-GST. pGEX vectors usually put GST at the N-terminus (surmise); also called DDX19A-GST; recombinant DDX19A
# T1 sequence (looked up): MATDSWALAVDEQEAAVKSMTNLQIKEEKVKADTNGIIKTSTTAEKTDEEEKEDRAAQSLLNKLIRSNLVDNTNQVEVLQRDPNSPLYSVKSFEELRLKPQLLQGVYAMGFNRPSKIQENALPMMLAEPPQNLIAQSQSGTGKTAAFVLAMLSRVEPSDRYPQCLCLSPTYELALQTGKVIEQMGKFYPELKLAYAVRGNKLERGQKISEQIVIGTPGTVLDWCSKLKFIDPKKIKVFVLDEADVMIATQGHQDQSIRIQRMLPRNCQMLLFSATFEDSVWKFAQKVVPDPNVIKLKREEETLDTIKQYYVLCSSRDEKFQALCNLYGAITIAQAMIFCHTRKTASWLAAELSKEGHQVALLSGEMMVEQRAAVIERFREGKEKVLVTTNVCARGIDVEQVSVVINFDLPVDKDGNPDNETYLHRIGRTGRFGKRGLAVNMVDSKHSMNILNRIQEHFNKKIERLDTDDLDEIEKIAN
# Molecular target: T1, GST-DDX19A (recombinant full-length …)
# Test: fluorescence polarisation; fluorescence anisotropy; 50 nM FITC-labelled H3.1 (16-34) peptide in 20 mM HEPES pH 7.5, 100 mM KCl, 0.1 mM DTT, 10% glycerol; DDX19A added stepwise; 23°C; fit to a simple binding equilibrium
# Conditions: both partners purified
binder,measurement,value
"PRKQLATKAARKSAPATGG (also: FITC label, position not given here) [FITC-labelled H3.1 peptide (residues 16-34), unmodified]",Kd,> 1000 nM
